To fix the notation:
B1: TPR 5TU (parent)
chain: GGAUCUUCUCGAUCUAACAAAAAAGACAAAUCUGCCACAAAGCUUGAGAGCAUCUUCGGAUGCAGAGGCGGCAGCCUUCGGUGGCGCGAUAGCGCCAACGUUCUCAACUAUGACACGCAAAACGCGUGCUCCGUUGAAUGGAGUUUAUCAUG

Fewer inactive variants are shown than the library holds.

The variants in the data set derive from B1. The data set is described as follows: polymerase ribozyme fitness, log enrichment relative to wild type (log ratio); higher = more active; in vitro selection for triplet polymerase activity. In outline: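 Mutant libraries of both subunits of a heterodimeric triplet polymerase ribozyme were PCR-built, transcribed, and selected once in triplicate, with frozen incubation at −7 °C and capture of gel-excised extended constructs on streptavidin beads before RT-PCR. Illumina sequencing of input and output libraries was filtered to genotypes with ≥10 input reads and ≥1 read per output. Fitness is the logarithm of genotype enrichment over wild-type enrichment, using inverse-variance-weighted replicate averages. The logarithm is base 2.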
Regarding GGAUCUUCUCGAUCUAACAAAAAAGACAAGUCUGGCACAAAGCUUGAGAGCAUCUUCGUAUGCAGAGGCGGCAGCCUUCGGUGGCGCGAUAGCGCCAACGUUCUCAACUAUGCCACGCAAAACGCGUGCUACGUUGAAUGGAGUUUAUCAUG [A30G C35G G59U A113C C131A], the “polymerase ribozyme fitness (log ratio)” value was no more than -4.2.
In the case of GGAUCUUCUCGAUCUAACAAACAAGACAAAUCUGCCACAUAGCUUGAGAGCAUUUUCGGAUGCAGAGGCGGCAGCCUUCGGUGGCGCGAUAGCACCAACGUUCUCAACUAUGACACGCAAAACGCGUGCUCCGUUGAAUGGAGUUUAUCAUG [A22C A40U C54U G94A] it was -0.982.
For the variant GGAUCUUCUCGAUCUAACAAAAAAGACAAAUCUGCCACAAAGCUUGAGAGCAUCUUCGGAUGCAGAGGCGGGAGCCUUCGGUGGCGCGAUGGCGCCAAGGUUCUCAACUAUGACACGCAAAACGCGUGCUCCGUUGAAUGGAGAUUAUCAUG [C72G A91G C99G U144A], the “polymerase ribozyme fitness (log ratio)” value was no more than -4.2.
In the case of GGAUCUUCUCGAUCUAACAAAAAAGACAAAUCUGCCACAAAGCUUGAGAGCAUCUUCGGAUGCAGAGGCGGCAGCCUUCGGUGGCACGGUAGCGCCAACGUUGUCAACUAUGACGCGCAAAACGCCUGCUCCGUUGAAUGGAGUUUAUCAUG [G86A A89G C103G A115G G126C] it was no more than -4.2; in that of GGAUCUUCUCGAUCUAACAAAAAAGACAAAUCUGCCACAAAGCUUGAGAGCAUCUUCGGAUGCAGAGGCGGCAGCCUUCGGUGGCGAGAUAGCGCCAACGCUCUCAACUAUGACACGCAAAACGCGUGCUCCGUUGAAUGGAGUUUAUCAUG [C87A U101C], -4.
As to GGAUCUUCUCGAUCUAACAGAAAAGACAAAUCUGCCACAAAGCUUGAGAGCAUCUUCGCAUGCAGAGGCGGCAGCCUUCGGUGGCGCGAUAGCCCCAACGUUCUCAACUAUGACACGCAAAACGCGUGCUCCGUUGAAUGGAGUUUAUCAUG [A20G G59C G94C], the “polymerase ribozyme fitness (log ratio)” value was -0.672.
GGAUCUUCUCGAUCUAACAAAAAAGACAAAUCUGCCACAAAGCUUGAGAGCAUCUUCGGAUGCAGAGGCGGCUGCCUUCGGUGGCGCGAUAGCGCCGACGUUCUCAACUAUGACACGCAAAACGCGUGCGCCGUUGAAUGGAGUUUAUCAUG [A73U A97G U130G]: the “polymerase ribozyme fitness (log ratio)” value is no more than -4.2.
Turning to GGACCUUCACGAUCUAACAAAAAAGACAAAUCUGCCACAACGCUUGACAGAAUCUUCGGAUGCAGAGACGGCAGCCUUCGGUCGCGCGAUAGCGCCAACGUUCUCAACUAUGACACGCAAAACGCGUGCUCCGUUGAAUGGAGUUUAUCAUG [U4C U9A A41C G48C C51A G68A G83C], the “polymerase ribozyme fitness (log ratio)” value is no more than -4.2.
GGAUCUUCUCGAUCUAACAAAAAAGACAAAUCUGCCACAAAGCUUGAGAGCAUCUUCGGAUGCAGAGGCGGCAGCCUUCGGUGGCGCGAUCGCGCCAACGUUCUCAACUAUGGCACGCAAAACGCGUGCUCCGUUGAAUGGAGUUUAUCAUG [A91C A113G]: the “polymerase ribozyme fitness (log ratio)” value is -4.15.
Consider GGAUCUUCUCGAUCUAACAACAAAGACAAAUCUGCCAUAAAGCUUCAGAGCAGCUUCGGAUGCAGAGGCGGCAGCCUUCGGUGGCGCUAUAGCGCCAACGUUCUCAACUAUGACACGCAAAUCGCAUGCUCCGUCGAAUGGAGUUUAUGAUG [A21C C38U G46C U53G G88U A122U G126A U135C C149G], for which the “polymerase ribozyme fitness (log ratio)” value was no more than -4.2.
As to GGAUCUUCUCGAUCUAACAAAAAAGACAAAUCUGCCACAAAGCUUGAGAGCAUUUUCGGAUGCAGAGGCGGCAGCCUUCGGUGGCGCGAUAGCGCCAACGUUCGCAACUAUGACACGCAAAACGCGUGCUCCGUUGAAUGGAGUUUAUCAUG [C54U U104G], the “polymerase ribozyme fitness (log ratio)” value was -1.21.
In the case of GGAUCUUCUCGAUCUAACAAAAAAGACAAAUCUGCCACAAAGCUUGAGAGCAUCUUCGGAUGCAGAGGCGGCAGCCUUCGGUGGAGCGAUAGCGCCAACGUUCUCAACUAUGACACGCAAAACGCGUGCUCCGUUGAAUGCAGUUUAUCAUG [C85A G141C] it was -1.46; in that of GGAUCUUCUCGAUCUAACAAAAAAGACAAAUCUGCCACACAGCUUGAGAGCAUCUUCGGAUGCAGAGGCGGCAGCCUUCGGUGGCGCGAUAGCGCCAACGUUCUCAACUAUGACACGCAAAACGCGUGCUCCGUUGAAUGGAGUUUAUCAUG [A40C], 0.603.
Take GGAUCUUCUCGAUCUAACAAAAAAGACAAAUCUGCCACAAAGCUUGAGAGGAUCUUCGGAUGCAGAGGCGGCAGCCUUCGGUAGCGCGAUAGCGCCAACGUUCUCAACUAUGACACGCAAAACGCGUGCUCCGCUGAAUGGAGUUUAUCAUG [C51G G83A U134C]: the “polymerase ribozyme fitness (log ratio)” value is -3.62.
With GGAUCUUCUCGAUCUAACAAAAAAGACAAAUCUGCCACAAAGCUUUAGAGCAUCUUCGGAUGCAGAGGCGGCAGCCUUCGGUGGCGCGAUAGCGCCAGCGUUCUCAACUAUGACACGCAAAACGCGUGCUCCGUUGAAUGGAGUUUAUCAUG [G46U A98G], the “polymerase ribozyme fitness (log ratio)” value is 0.0194.
In the case of GGCUCUUCUCGAUCUAACAAAAAAGACAAAUCUGCCACAAAGCUUGUGAGCAUCUUCGGAUGCAGAGGCGGCAGCCUUCGGUGGCGCGAUAGCGCCAACGUUCUCAACUAUGACACGCAAAACGCGUGCUCCGUUGAAUGGAGUUUAUCAUG [A3C A47U], the “polymerase ribozyme fitness (log ratio)” value was -0.813.
On to GGAUCUUCUCGAUCUAGCAAAAAAGACAAAUCUGCCAUAAAGCUUGAGAGCAUCUUCGGAUGCAGAGGCGGCAGCCUUCGAUGGCGCGAUAGCGCAAACGUUCUCAACUAUGACACGCAAAACGCGUGCUCCGUUGAAUGGAGUUUAUCAUG [A17G C38U G81A C96A], for which the “polymerase ribozyme fitness (log ratio)” value is 0.341.
In the case of GGAUCUUCUCGAUCUAACCAAAAAGACAAAUCUGCCACAAAGCUUGAGAGCAUCUUCGGAUGCAGAGGCGGCAGCCUUCGGUGGCGCGAUAGCGCCAACGUUCUCAACUAUGACACGCAAAACGCUUGCUCCGUUGAAUGGAGUAUAUCAUG [A19C G126U U145A] it was -0.56.
Consider GGAUCUUCUCGAUCUAACAAAAAAGACAAAUCUGCCAUAAAGCUUGAGCGCAUCUUCGGCUGCAGAGGCGGCAGCCUUCGGGAGCGCGAUAGCGCCAACGUUCUCAACUAUGACACGCAAAACGCGUGCUCCGUUGAAUGGAGUUUAUCAUG [C38U A49C A60C U82G G83A], for which the “polymerase ribozyme fitness (log ratio)” value is no more than -4.2.

These data come from the RNAGym collection of RNA variant scans (doi:10.1073/pnas.2313332121).
